{"source": "patent US20130171235A1", "molecular_target": "PTEN-long (endogenous human form, translated from the upstream CUG start site of PTEN mRNA) (Homo sapiens)", "experiment": "concanavalin A sepharose pulldown from HEK293 lysate, immunoblot"}
{"substance": "concanavalin A (lectin, on sepharose) (from UniProt P02866)", "values": [{"measurement": "share of PTEN-long in the PTEN pulled down", "result": 50, "unit": "%"}]}
